From publication PMC7596997

Target: S. cerevisiae AAC2, P18239
Assay: binding of [35S]-labeled AAC2 to isolated mitochondria
Details: chain shown with the change, AAC2 lysate preincubated with apyrase, n = 3, read off a plot

S. cerevisiae AAC2, P18239, sequence (P18239 whole entry, the tested form may be a part): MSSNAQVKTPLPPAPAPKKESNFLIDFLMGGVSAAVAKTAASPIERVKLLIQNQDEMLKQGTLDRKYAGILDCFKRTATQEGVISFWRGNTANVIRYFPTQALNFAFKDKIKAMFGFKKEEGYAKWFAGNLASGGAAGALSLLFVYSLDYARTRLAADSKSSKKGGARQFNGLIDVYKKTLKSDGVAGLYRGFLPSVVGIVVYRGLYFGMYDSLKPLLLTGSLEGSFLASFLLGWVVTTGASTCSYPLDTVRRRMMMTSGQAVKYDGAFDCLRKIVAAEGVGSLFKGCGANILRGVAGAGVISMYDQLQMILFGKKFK

other: bound protein, % of control (same mitochondria without NEM, 12 min) (mitochondria pretreated with 2 mM NEM, control = untreated Tom70C141A mitochondria at 12 min): 95 % of control
other: bound protein, % of control (same mitochondria without NEM, 12 min) (no NEM, this point is the normalisation control (100%), not a comparison with wild type): 100 % of control
B1: Tom70 in the outer membrane of isolated yeast mitochondria (wild type), P07213 C141A (protein)
chain: MKSFITRNKTAILATVAATGTAIGAYYYYNQLQQQQQRGKKNTINKDEKKDTKDSQKETEGAKKSTAPSNPPIYPVSSNGEPDFSNKANFTAEEKDKYALALKDKGNQFFRNKKYDDAIKYYNWALELKEDPVFYSNLSAAYVSVGDLKKVVEMSTKALELKPDYSKVLLRRASANEGLGKFADAMFDLSVLSLNGDFNDASIEPMLERNLNKQAMSKLKEKFGDIDTATATPTELSTQPAKERKDKQENLPSVTSMASFFGIFKPELTFANYDESNEADKELMNGLSNLYKRSPESYDKADESFTKAARLFEEQLDKNNEDEKLKEKLAISLEHTGIFKFLKNDPLGAHEDIKKAIELFPRVNSYIYMALIMADRNDSTEYYNYFDKALKLDSNNSSVYYHRGQMNFILQNYDQAGKDFDKAKELDPENIFPYIQLACLAYRENKFDDCETLFSEAKRKFPEAPEVPNFFAEILTDKNDFDKALKQYDLAIELENKLDGIYVGIAPLVGKATLLTRNPTVENFIEATNLLEKASKLDPRSEQAKIGLAQMKLQQEDIDEAITLFEESADLARTMEEKLQAITFAEAAKVQQRIRSDPVLAKKIQETLAKLREQGLM
